The target in assay [1] is T1, human IL5 (human, UniProt P05113 20-134, biotinylated (IL5-biotin) in Examples 2, 5, 6, 9 and 11; site not stated). Put plainly: BLI.
For assay [2], the target named is T1, human IL5. The assay can be described thus: ELISA. For orientation: An ELISA detects its analyte on a solid surface through an enzyme-linked reagent.
Assay [3] deals with T1, human IL5. The assay can be described thus: flow cytometry blocking IL5/IL5R. In general terms: Flow cytometry measures light scatter and fluorescence of single cells or particles in a stream.
Assay [4] deals with T1, human IL5. The assay can be described thus: flow.

B1: Nb66 (VHH)
VHH: QVQLQESGGGSVQAGGSLRLSCAASGYTVSSNMGWFRQAPGKEREGVAAIYPDGATYYADSVKGRFTISQDNAENTVYLQMNSLKPEDTAMYYCAADLAFNGLGTLALHGYWGQGTQVTVSS
The term Kd denotes the free concentration of one partner at which half of the binding sites on the other are occupied at equilibrium, for simple one-to-one binding. A higher Kd goes with weaker binding. By EC50 is commonly meant the concentration that produces a half-maximal response. A lower EC50 goes with a more potent agent. As a reminder, the IC50 is the midpoint of a concentration-inhibition curve. Read a high IC50 as lower potency. In assay [1], B1 showed a Kd of under 0.001 nM. The molecule further displayed an EC50 in assay [2] of 0.0327 µg/mL. In assay [3], this molecule showed an IC50 of 1.17 µg/mL.

B2: HuNb66-Fc (antibody, V domains shown)
VH: EVQLQESGGGLVQPGGSLRLSCAASGYTVSSNMGWFRQAPGKEREGVAAIYPDGATYYADSVKGRFTISRDNSENTLYLQMNSLRAEDTAMYYCAADLAFNGLGTLALHGYWGQGTLVTVSS
B2 showed an IC50 in assay [4] of 5.73 µg/mL.

B3: Nb25 (VHH)
VHH: QVQLQESGGGSVQAGGSLRLSCAASEYTYSRYCMGWFRQVPGKEREGVATIDSDGSTSYADSVKGRFTISKDNAKNTLYLQMNSLKPEDTAMYYCAARYFYIATTGLRPCGEYEYNYWGQGTQVTVSS
B3: the affinity in assay [1], expressed as Kd, was 0.491 nM. In assay [2], the EC50 was 0.0427 µg/mL. Half-maximal inhibition in assay [3] (IC50) was put at 2.62 µg/mL.

B4: Nb92 (VHH)
VHH: QVQLQESGGGLVQPGGSLRLSCAASGFTFSNYYMSWVRQAPGKGLEWVSSISSDGSNTYYEDSVKGRFTISRDNANNTLYLQMNSLKSEDTALYHCATDLYDDSWYDHWGQGTQVTVSS
With B4, in assay [1], the Kd was 0.385 nM. Moreover, the EC50 in assay [2] worked out at 0.0432 µg/mL. This molecule also gave a 50% inhibitory concentration (IC50) in assay [3] of 2.29 µg/mL.

B5: Nb21 (VHH)
VHH: QVQLQESGGGSAQAGGSLKLSCVVSGYPYSGDYCMGWFRQAPGKEREGVAAFYTGGGSTYYADSVKGRFTTSQDNATSTFHLQMNSLKPEDTATYYCAADPWSVYGGSCGVKDPNPKAFNYWGQGTQVTVSS
Molecule B5 displayed a Kd in assay [1] of 0.629 nM. The molecule also showed an EC50 in assay [2] of 0.0357 µg/mL. This molecule returned an IC50 in assay [3] of 1.57 µg/mL.

B6: HuNb21-Fc (antibody, V domains shown)
VH: EVQLQESGGGLVQPGGSLRLSCAASGYPYSGDYCMGWFRQAPGKEREGVAAFYTGGGSTYYADSVKGRFTISRDNSKNTLYLQMNSLRAEDTAVYYCAADPWSVYGGSCGVKDPNPKAFNYWGQGTLVTVSS
The molecule B6 had an IC50 in assay [4] of 5.96 µg/mL.

Values taken from US20230399395A1 (published 2023).
